Laboratory results from the nanobody polyreactivity screen of Harvey et al. (2022).

Assay: yeast display, Sf9 membrane polyspecificity reagent, FACS + sequencing; frameworks hold sequencing errors
How it was run: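 Galactose-induced (36–48 hours) yeast carrying a synthetic nanobody display library were exposed to 10% biotinylated, detergent-solubilized Sf9 membrane reagent at 4 °C for 1 hour. FACS followed streptavidin microbead enrichment, using low and high (top ~1%) gates for expression (anti-HA) and reagent binding (streptavidin). Colony PCR, MiSeq 2 × 250 sequencing and CDR-length filtering followed. Labels for polyreactivity reflect the gate of origin.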

Row | Sequence | polyreactivity (PSR sort gate)
1 | QVQLVESGGGLVQAGGTLRLSCAASGSTFYRYAMGWYRTAPGKERELVATITRSGGSTYYADSVKGRFTISRDNAKNTVYLQMNSLKPEDTAVYYCAARGWYKSDYWGQGTQVTVSS | low polyreactivity
2 | QVQLVESGGGLVQAGGSLRLSCAASGRTFPGNAMGWYRQAPGKERELVAAINSGGSTYYADSVKGRFTISRDNAKNTVYLQMNSLKPEDTAVYYSAAYFGHYWRYYYWGQGTQVNVSS | high polyreactivity
3 | QVQLVESGGGLVQAGGSLRLSCAASGRIFTTYVMGWYRQAPGKEWELVAAISARGSTYYADSVKGRFTISRDNAKNTVYLQMNSLKPEDTEVYYCAAGPRLPVYYGYPRATYNDWGQGTQVTVSS | low polyreactivity
4 | QVQLVESGGGLVQAGGSLRLSSAASGSTFEAYTMGWYRPAPGKERELVAAISRSGGSTYYADSVKGRFTISRDNAKNTVYLQMNSLKPEDTAVYYCAASRYIGYNYWGQGTQVNVSS | high polyreactivity
5 | QVQLVESGGGLVQAGGSLRLSCAASGRIFVYNTMGWYRQAPGKERELVAAMSWSGVGTYYADSVKGRFTISRDKAKNTVYLQMNSLKPEDTAVYYCNAWIYYGYFIFDYWGQGTQVTVSS | high polyreactivity
6 | QVQLVESGGGLVQAGGSLRLSCAASGSTFCENDMGWYRQAPGKERELVAAISWTGGRTYYADSVKGRFTISRDNAKNTVYLQMNSLKAEDTAVYYFAAEWEYYGFDYWGQGTQVTVSS | low polyreactivity
7 | QVQLVESGGGLVQAGGSLRLSCAASGLTFKSYAMGWYRQAPVKERELVAGISWSGDSTYYADSVKGRFTISRDNAKNTVYLQMNSLKPEDTAVYYCAAEYSYEYDYWGQGTQVTVSS | high polyreactivity
8 | QVHLVESGGGLVQAGGSLRLSCAASGITLRVYVMGWYRQAPGKERELVAAITSRGDRTYYADSVKGRFTISRDNAKNTVYLQMNSLKPEDTAVYYCAASRWRDAGHSYDYWGQGTQVTVSS | high polyreactivity
9 | QVQLVESGGGLVQAGGSLRLSCAASGRTFFPYAMGWYRQAPGKERELVARISRTTGRTYYADSVKGRFTISRDNAKNTVFLQMNSLKPEDTAVYYCNAEGFRASGGYVRFEYWGQGTQVTVSS | high polyreactivity
10 | QVQLVESGGGLVQAGGSLRLSCAASGRTFRVYTMGWYRQAPGKERELVAAISSRGGSTYYADSVKGRFTISRDNAKNTVYLQMNSLKPEDTAVYYCAAVSYYPARYGYWGQGTQVTVSS | high polyreactivity
11 | QDQLVESGGGLVQAGGSLRLTCAASGSIFRYYVMGWYRQAPGKERELVAGISSSGGRTYYADSVKGRFTISRDNANNTVYLQMNSLKPEDTAVYYCNAVTSRRPYDYWGHGTQVTVSS | high polyreactivity
12 | QVQLVESGGGLVQAGGSLRLSCAASGSIFYGNTMGWYRQAPGKERELVAAISSGGSTKYADSVKGRFTISRDNAKNTVYLQMNSLKPEDTAVYYCAKVAPRSSSSQEYYYWGQGTQVTVSS | low polyreactivity
13 | QVQLVESGGGLVQAGGSLRLSCAASGSILQPIYAMGWYRQAPGKERELVAAISASGGSTYYADSVKGRFTISRDNAKNTVYLQMNSLKPEDTAVYYCNKVGYYASVLGYDYWGQGTQVTVSS | high polyreactivity
14 | QVQLVESGGGLVKAGGSLRLSFAASGRIFRRYAMGWCGPAPGKEREFVAAITKSGGSTNYADSVKGRFTISRDNANNTVYLQMNSLKPEDTAVYYCATYPQFYFRYDYWGLGTQVTVSS | high polyreactivity
15 | QVQLVESGGGFVQAGGSLRLSCAASGFTFYRNAMGWYRQAPGKERELVAAITWSGTSTYYADSVKGRFTISRDNAKTTVYVQMNSLKPEDTAVYYCNTVGYRGRSNSRFYYWGQGTQVTVSS | high polyreactivity
16 | QVQLVESVGGLVQAGGSLRLSCAASGSIFQPYAMGWYRHAPGKEREFVAAISRSGGITYYADSVKGRFTISRDNAKNTVYLQMNSLKPEDTAVYYCATGRQVVRSYSEGDYCGQGTQVTVSS | low polyreactivity

Row | Sequence | polyreactivity (PSR sort gate)
17 | KVQLVESGGGLVQAGGSLRLSCAASGSIFTHNAMGWYRQAPGKERELVAAISSGGSTNYADSVKGRFTISRDNAKNTVYLQMNSLKPEDTAVYYCAKSIDGWYWRRRRYDYWGQGTQVTVSS | low polyreactivity
18 | QVQLVESGGGLVQAGGSLRLSCAASGFTFQYYAMGWYRQAPGKERELVAVISRSGGRTYYADSVKVRFTISRDNAKNTVYLQMNSLKPEDTAVYYCAALSQPGQSDDKQYDYWGQGTQVTVSS | high polyreactivity
19 | QVQLVESGGGLVQAGRSHRLSFAASGFTLKGYAMGWYRQAPGKDRELVAAISWNGGRTYYADSVKGRFTISRDNAKNTVYLQMNSLKPEVTAVYYCAAVYRFYSPTKYTYDYWGQGTQVTVSS | high polyreactivity
20 | QVQLVESGGGLVQAGGSLRLSCAASGSIFVDNAMGWYRQAPGKERELVAAITDSGGRTYYADSVKGRFTISRDNAKNTVYLQMNSLKPEDTAVYYCAAGQSGYAGRRPAFGYWGQGTQVTVSS | low polyreactivity
21 | QVQLVESGGGLVQAGGSLRLSCAASGLIFKYYAMGWYRHAPGKERELVAAITWRGGDRTYYADSVKGRFTISRDNAKNTVYLQMNSLKPEDTAVYYCAAVISSPWRFDYWGQGTQVTVSS | high polyreactivity
22 | QVQLVESGGGLVQAGGSLRLSCAASGSTSKSYTMGWYRQAPGKERELVAAISYSGVSTYYADSVKGRFTISRDNAKNTVYLQMNSLKPEDTAVYYCAKRTRKYTVGYYYWGQGTQVTVSS | high polyreactivity
23 | QVQLVESGGGLVQAGGSLRLSCAASGIIFRGNAMGWYRQAPRKEREFVAAISLRGSRTYYADSVKGRFTISRDNAKNTVYLQMNSLKPEDTAVYYCNARGGPSPFGSDYWGQGTQVTVSS | high polyreactivity
24 | QVQLVESGGGLVQAGGSLRLSCAASGLNFARNAMGWYRQAPGKERELVAAISSSGNTYADSVKGRFTISRDNAKNTVYLQMNSLKPEDTAVYYCAADYVRWGQRKRSRYYYWGQGTQVTVSS | high polyreactivity
25 | QVQLVQSGGGLVQAGGSLRLSCAASGRTFGTYAMGWYRQAPGKEREFVAVITNRGGRTYYADSVKGRFTISRDNAKNTVYLQMNSLKPEDTAVYYCTAVGRGWAFDYWGQGTQVTVSS | high polyreactivity
26 | QVHHVESCGGLVQAGGSLRLSCAASGRTFVYYAMGWYRQAPGKEREFVAAISRSGGRTSYAYSVKGRFTISRDNPKNTVYLPMNSLKPEDTAVYYCGAEKRTQPTSREYYWGQGTQVTVSS | high polyreactivity
27 | QVQLVESGGGLVQAGGSLRLSCAASGSIFIQYDMGWYRQAPGKERELVATIRSCDSTTYADSVKGRFTISRDNAKNTVFLQVNSLKPEDTAVYYCAKDYRFDYDYDYWGQGTQVTVSS | low polyreactivity
28 | QVQLVESGGGLVQAGGSLRLSCAASGRTLYKYAMGWYRQAPGKERELVAAISRNGGSTYYADSVKGRFTISRDNAKNTVYLQMNSLKPEDTAVYYCNKRWGYQYLWVADYDYWGQGTQVTVSS | high polyreactivity
29 | QVQLVESGGGLVQAGGSLRLSCAASGITFVLYAMGWYRQAPGKEREFVAAITNSGGSTYYADSVKGRFTISRDNAKNTVYLQMNSLKPEDTAVYYCAATRRRYRPYEYWGQGTQVTVSS | high polyreactivity
30 | QVQLVESGGGLVQAGGSLRLSCAASGITFDSYAMGWYRQSPGKEREWVDAISYSGGSTYYADSVKGRFTISRDNAKNTVNLQMNRLKPEDTAVYYFAAASDEDYDYWGQGTQVTVSS | low polyreactivity
31 | QVQLVESGGGLVQAGGSLRLSCAASGSIFWSYGMGWYIQAPGKERELVASTRYADSVKERFTISRDNAKNTVYLLMNSLKPEDTAVYYCAADVWTLDPDEYDYWGQGTQVTVSS | low polyreactivity
32 | QVQLVESGGGLVQAGGSLRLSCAASGSTFGHYAMGWYRQAPGKERELVAGITDTDNHELRRLCEGRFTISRDNAKNTVYLQMTSLKPEDTAVYYCNADDTYYPLGGITGYDYWGQGTQVTVSS | low polyreactivity
